Source: doi:10.1101/2021.05.11.443686

Molecular target: ectodomain of the S protein of SARS-CoV-2 B.1.1.7 (S-UK) (SARS-CoV-2) (UniProt P0DTC2)
Assay: cryo-EM structure

ectodomain of the S protein of SARS-CoV-2 B.1.1.7 (S-UK) (from UniProt P0DTC2 14-1208) (domain or fragment)
stoichiometry N: 3 protomers
